Laboratory results published in the Human Domainome abundance scans (Beltran et al. 2025).
± gives the uncertainty stated by the source.

B1: Homeobox protein cut-like 1, residues 548 to 629; numbered along this chain, P39880 (parent)
chain: GEEMDTAEIARQVKEQLIKHNIGQRIFGHYVLGLSQGSVSEILARPKPWNKLTVRGKEPFHKMKQFLSDEQNILALRSIQGR

Variants of: B1
Experiment: abundance fitness (aPCA) (normalised: wild type 0, dead -1); higher = more abundant; growth selection in yeast, the domain comes from the species named
Conditions: Homo sapiens

| Variant | abundance fitness |
| --- | --- |
| S68E | 0.013 ± 0.036 |
| S68P | -0.656 ± 0.065 |
| S68A | -0.041 ± 0.031 |
| S68Q | -0.049 ± 0.038 |
| S68Y | -0.297 ± 0.068 |
| S68W | -0.4 ± 0.039 |
| S68M | -0.083 ± 0.037 |
| S68R | -0.157 ± 0.027 |
| S68L | -0.088 ± 0.031 |
| S68D | -0.02 ± 0.043 |
| S68H | -0.292 ± 0.061 |
| S68I | -0.198 ± 0.06 |
| S68F | -0.187 ± 0.06 |
| S68C | -0.133 ± 0.041 |
| S68T | -0.122 ± 0.038 |
| S68V | -0.304 ± 0.032 |
| S68K | -0.023 ± 0.036 |
| L74C | -0.162 ± 0.049 |
| L74P | -0.417 ± 0.049 |
| L74H | 0.007 ± 0.052 |
| L74M | -0.074 ± 0.041 |
| L74Q | 0.005 ± 0.042 |
| L74S | -0.083 ± 0.032 |
| L74T | -0.087 ± 0.041 |

| Variant | abundance fitness |
| --- | --- |
| L74G | -0.159 ± 0.026 |
| L74W | -0.098 ± 0.032 |
| L74N | -0.064 ± 0.059 |
| L74D | -0.019 ± 0.046 |
| L74F | -0.028 ± 0.054 |
| L74I | 0.032 ± 0.052 |
| L74A | -0.039 ± 0.031 |
| L74R | -0.041 ± 0.026 |
| L74E | 0.008 ± 0.034 |
| L74V | 0.017 ± 0.029 |
| L74Y | -0.112 ± 0.054 |
| L74K | 0.029 ± 0.036 |
| F66E | -0.887 ± 0.055 |
| F66I | -0.573 ± 0.13 |
| F66W | 0.116 ± 0.029 |
| F66N | -0.781 ± 0.13 |
| F66R | -1.04 ± 0.049 |
| F66A | -0.758 ± 0.048 |
| F66Q | -0.791 ± 0.063 |
| F66G | -0.934 ± 0.041 |
| F66P | -0.77 ± 0.089 |
| F66L | -0.662 ± 0.046 |
| F66K | -0.829 ± 0.063 |
| F66M | -0.648 ± 0.054 |

| Variant | abundance fitness |
| --- | --- |
| F66H | -0.966 ± 0.14 |
| F66C | -0.963 ± 0.14 |
| F66S | -0.829 ± 0.065 |
| F66Y | -0.924 ± 0.18 |
| E58V | -0.062 ± 0.03 |
| E58T | -0.255 ± 0.038 |
| E58Y | -0.166 ± 0.075 |
| E58S | -0.252 ± 0.035 |
| E58Q | -0.047 ± 0.034 |
| E58R | -0.273 ± 0.026 |
| E58W | -0.227 ± 0.033 |
| R77D | -0.292 ± 0.057 |
| R77E | -0.005 ± 0.035 |
| R77A | 0.049 ± 0.03 |
| R77P | -0.419 ± 0.062 |
| R77C | -0.032 ± 0.046 |
| R77L | -0.073 ± 0.032 |
| R77W | -0.336 ± 0.041 |
| R77F | -0.511 ± 0.07 |
| R77Q | 0.018 ± 0.042 |
| R77I | -0.116 ± 0.057 |
| R77K | 0.103 ± 0.043 |
| R77N | -0.118 ± 0.057 |
| R77G | -0.086 ± 0.026 |

| Variant | abundance fitness |
| --- | --- |
| R77H | -0.096 ± 0.088 |
| R77V | -0.035 ± 0.031 |
| R77M | -0.096 ± 0.042 |
| R77S | 0.041 ± 0.03 |
| K62C | -0.413 ± 0.062 |
| K62P | -0.989 ± 0.089 |
| K62N | -0.532 ± 0.082 |
| K62T | -0.305 ± 0.044 |
| K62Y | -0.522 ± 0.095 |
| K62M | -0.231 ± 0.041 |
| K62V | -0.307 ± 0.03 |
| K62L | -0.12 ± 0.031 |
| K62I | -0.16 ± 0.068 |
| K62F | -0.603 ± 0.11 |
| K62S | -0.443 ± 0.038 |
| K62A | -0.201 ± 0.027 |
| K62W | -0.749 ± 0.047 |
| K62E | -0.506 ± 0.036 |
| K62R | -0.126 ± 0.024 |
| K62G | -0.729 ± 0.032 |
| H61C | -0.134 ± 0.047 |
| H61K | 0.013 ± 0.035 |
| H61F | 0.069 ± 0.089 |
| H61R | 0.014 ± 0.023 |

| Variant | abundance fitness |
| --- | --- |
| H61V | 0.009 ± 0.028 |
| H61I | 0.075 ± 0.061 |
| H61G | -0.342 ± 0.024 |
| H61Q | 0.04 ± 0.034 |
| H61W | -0.03 ± 0.029 |
| H61E | 0.021 ± 0.028 |
| H61S | -0.137 ± 0.035 |
| H61L | 0.071 ± 0.032 |
| H61Y | 0.067 ± 0.055 |
| H61N | -0.11 ± 0.056 |
| H61A | -0.07 ± 0.027 |
| K64N | -0.225 ± 0.062 |
| K64C | -0.273 ± 0.056 |
| K64Y | -0.112 ± 0.085 |
| K64T | -0.287 ± 0.043 |
| K64G | -0.43 ± 0.026 |
| K64H | -0.216 ± 0.059 |
| K64R | -0.049 ± 0.024 |
| K64L | -0.064 ± 0.032 |
| K64Q | 0.033 ± 0.036 |
| K64E | -0.167 ± 0.03 |
| K64A | -0.028 ± 0.029 |
| K64P | -0.917 ± 0.1 |
| K64M | -0.061 ± 0.037 |

| Variant | abundance fitness |
| --- | --- |
| K64F | -0.15 ± 0.097 |
| K64W | -0.24 ± 0.035 |
| K64V | -0.023 ± 0.029 |
| K64D | -0.489 ± 0.085 |
| K64S | -0.154 ± 0.035 |
| D69W | -0.387 ± 0.039 |
| D69P | -0.75 ± 0.085 |
| D69G | -0.267 ± 0.027 |
| D69V | -0.308 ± 0.034 |
| D69L | -0.318 ± 0.036 |
| D69F | -0.252 ± 0.068 |
| D69T | -0.181 ± 0.044 |
| D69E | -0.134 ± 0.034 |
| D69Y | -0.351 ± 0.071 |
| D69A | -0.174 ± 0.032 |
| D69N | -0.015 ± 0.052 |
| D69R | -0.207 ± 0.027 |
| D69M | -0.231 ± 0.044 |
| D69H | -0.182 ± 0.085 |
| D69I | -0.425 ± 0.07 |
| D69K | -0.108 ± 0.042 |
| S78K | 0.044 ± 0.04 |
| S78H | -0.053 ± 0.061 |
| S78M | -0.009 ± 0.043 |

| Variant | abundance fitness |
| --- | --- |
| S78G | 0.003 ± 0.025 |
| S78C | -0.107 ± 0.043 |
| S78F | -0.188 ± 0.055 |
| S78E | 0.087 ± 0.034 |
| S78I | -0.066 ± 0.052 |
| S78D | 0.097 ± 0.039 |
| S78A | 0.042 ± 0.032 |
| L67Y | -0.609 ± 0.16 |
| L67A | -0.736 ± 0.05 |
| L67Q | -0.978 ± 0.11 |
| L67W | -0.817 ± 0.063 |
| L67C | -0.498 ± 0.079 |
| L67F | -0.341 ± 0.091 |
| L67V | -0.243 ± 0.034 |
| L67M | -0.284 ± 0.045 |
| L67H | -1.21 ± 0.32 |
| L67G | -0.848 ± 0.04 |
| L67D | -0.876 ± 0.12 |
| L67N | -0.582 ± 0.12 |
| L67R | -0.979 ± 0.057 |
| L67I | -0.303 ± 0.1 |
| L67K | -0.918 ± 0.081 |
| L67S | -1.01 ± 0.088 |
